# Laboratory results published in article PMC9054685 (RSC Advances, 2020).
# Test: Particle size by dynamic light scattering
# Format: physicochemical
# Details: Zetasizer Nano ZS, 25 °C
substance,measurement,value
"dendritic polylysine-1,4,7-triazacyclononane-1,4,7-triacetic acid conjugate [NOTA-DGL]","diameter (particle size, DLS)",35.02 ± 1.53 nm
